Data as given in patent US20250296960A1, “PEPTIDE COMPOSITIONS AND METHODS OF USE THEREOF” (priority 2022, published 2025).
Numbered stars: 1 amine (or outer) side, 2 acyl side, 3 side chain; on linkers, the order of the positions; unused ones are H or OH. Square brackets hold non-standard residues; d marks the D form. Side chains are listed from the residue outwards. Ends that are not written are not given here. Peptide text beside a SMILES is read from it. * marks the point of attachment. C18 = C18 fatty acid (C16-C22 fatty acids conjugated via γGlu/8-amino-3,6-dioxaoctanoic acid spacers); X1 = O=C(O)CCCCCCCCCCCCCCCCC(=O)N[C@@H](CCC(=O)NCCOCCOCC(=O)NCCOCCOCC(=O)NCCN1C(=O)CC(*)C1=O)C(=O)O; methoxinine = methoxinine (m*), COCC[C@H](N[*:1])C(=O)[*:2]; Biotin = O=C1N[C@H]2[C@H](CS[C@H]2CCCCC(=O)*)N1; γGlu = O=C(O)[C@H](CCC(=O)[*:2])N[*:1]; AEEA = NCCOCCOCC(=O)O; Aib = CC(C)(N)C(=O)O

Legend:
[1] = In vivo efficacy in mAMLN (NASH) mice, 2 weeks
human GLP-1R = biological target: T1, human GLP-1R (Homo sapiens, UniProt P43220); assay: cAMP assay (HitHunter cAMP) in GLP-1R-expressing CHO-K1 cells (GLP-1R+ cells); type: cell-based
T1 construct: host or cells: CHO-K1
In short: (§1)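 CHO-K1 cells expressing each receptor were plated overnight, then treated with peptide in cAMP assay buffer for 30 min at 37 °C. cAMP was detected by antibody plus detection solution (1 h) and Solution A (3 h), both at room temperature in the dark. Luminescence was the read-out.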

human GIPR = biological target: T2, human GIPR (Homo sapiens, UniProt P48546); assay: cAMP assay (HitHunter cAMP) in GIPR-expressing CHO-K1 cells (GIPR+ cells); type: cell-based
T2 construct: host or cells: CHO-K1
T2 sequence (P48546 22-466): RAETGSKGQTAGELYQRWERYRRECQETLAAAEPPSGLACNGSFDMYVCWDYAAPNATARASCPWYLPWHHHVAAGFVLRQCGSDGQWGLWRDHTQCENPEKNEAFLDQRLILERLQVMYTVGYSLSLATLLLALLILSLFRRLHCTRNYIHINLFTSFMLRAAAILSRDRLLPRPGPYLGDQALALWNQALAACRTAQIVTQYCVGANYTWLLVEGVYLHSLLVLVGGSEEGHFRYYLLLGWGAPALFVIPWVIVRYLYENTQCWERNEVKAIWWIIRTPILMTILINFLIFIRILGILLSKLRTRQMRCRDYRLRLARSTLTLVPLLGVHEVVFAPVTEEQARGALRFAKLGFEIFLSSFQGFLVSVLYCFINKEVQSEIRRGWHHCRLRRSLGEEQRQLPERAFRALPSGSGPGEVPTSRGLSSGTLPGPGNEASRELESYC
In short: as §1

human GCGR = biological target: T3, human GCGR (Homo sapiens, UniProt P47871); assay: cAMP assay (HitHunter cAMP) in GCGR-expressing CHO-K1 cells (GCGR+ cells); type: cell-based
T3 construct: host or cells: CHO-K1
In short: as §1

[2] = Body weight loss in normal C57BL/6 mice, subcutaneous dosing; type: in vivo; conditions: for Weight loss (%): normal mice, after 48 or 72 hours
[3] = biological target: human glucagon receptor (GCGR), expressed on CHO-K1 cells (human, UniProt P47871 26-477); assay: cell-based or functional assay
[4] = biological target: T4, human glucose-dependent insulinotropic polypeptide receptor (GIPR), expressed on CHO-K1 cells (human, UniProt P48546 22-466); assay: cell-based or functional assay
T4 sequence (looked up): T2 sequence (P48546 22-466)

[5] = biological target: human GLP-1 receptor (GLP-1R), expressed on CHO-K1 cells (human, UniProt P43220 24-463); assay: cell-based or functional assay
[6] = Table 19, normalised to activity at GLP-1R
[7] = Table 24, ratio of EC50 of native ligand over peptide

Chain of human glucagon receptor (GCGR), expressed on CHO-K1 cells (P47871 26-477): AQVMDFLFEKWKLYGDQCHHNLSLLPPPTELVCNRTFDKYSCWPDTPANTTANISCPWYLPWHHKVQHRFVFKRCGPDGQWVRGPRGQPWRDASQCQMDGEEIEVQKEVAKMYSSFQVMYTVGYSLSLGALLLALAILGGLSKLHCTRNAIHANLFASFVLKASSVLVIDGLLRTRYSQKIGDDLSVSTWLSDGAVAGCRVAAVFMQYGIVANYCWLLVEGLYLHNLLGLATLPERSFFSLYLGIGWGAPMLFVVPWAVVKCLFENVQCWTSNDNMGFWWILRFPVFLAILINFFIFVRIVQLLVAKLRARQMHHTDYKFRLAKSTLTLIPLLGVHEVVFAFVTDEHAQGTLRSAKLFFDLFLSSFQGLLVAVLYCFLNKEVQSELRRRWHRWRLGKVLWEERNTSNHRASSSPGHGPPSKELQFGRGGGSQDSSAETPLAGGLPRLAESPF
T3 sequence (P47871 26-477): as above
T1 sequence (P43220 24-463): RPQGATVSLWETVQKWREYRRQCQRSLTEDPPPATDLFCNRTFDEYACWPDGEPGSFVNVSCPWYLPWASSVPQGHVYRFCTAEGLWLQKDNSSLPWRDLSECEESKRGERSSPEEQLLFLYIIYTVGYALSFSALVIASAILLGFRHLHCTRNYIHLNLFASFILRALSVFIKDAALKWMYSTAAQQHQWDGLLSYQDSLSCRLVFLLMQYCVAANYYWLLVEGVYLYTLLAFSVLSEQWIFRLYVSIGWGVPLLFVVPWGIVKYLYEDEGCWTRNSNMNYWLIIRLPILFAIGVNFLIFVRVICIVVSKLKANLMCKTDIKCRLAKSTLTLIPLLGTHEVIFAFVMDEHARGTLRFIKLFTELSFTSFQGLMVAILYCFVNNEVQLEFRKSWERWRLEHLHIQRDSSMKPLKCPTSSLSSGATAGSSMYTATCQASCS

## CC[C@H](C)[C@H](NC(=O)[C@H](CC(C)C)NC(=O)[C@H](Cc1c[nH]c2ccccc12)NC(=O)[C@H](CCC(N)=O)NC(=O)[C@@H](NC(=O)[C@H](Cc1ccccc1)NC(=O)[C@H](CC(=O)O)NC(=O)[C@H](CCCNC(=N)N)NC(=O)[C@H](C)NC(=O)[C@H](CCSC)NC(=O)[C@H](CCSC)NC(=O)[C@H](Cc1ccc(O)cc1)NC(=O)[C@H](CC(=O)O)NC(=O)[C@H](CC(C)C)NC(=O)[C@H](Cc1ccc(O)cc1)NC(=O)[C@H](CCCCN)NC(=O)[C@H](CO)NC(=O)[C@H](Cc1ccc(O)cc1)NC(=O)[C@H](CC(=O)O)NC(=O)[C@H](CO)NC(=O)[C@@H](NC(=O)[C@H](Cc1ccccc1)NC(=O)[C@@H](NC(=O)CNC(=O)[C@H](CCC(N)=O)NC(=O)C(C)(C)NC(=O)[C@@H](N)Cc1ccc(O)cc1)[C@@H](C)O)[C@@H](C)O)C(C)C)C(=O)N[C@@H](CCC(=O)O)C(=O)NCC(=O)NCC(=O)N1CCC[C@H]1C(=O)N[C@@H](CO)C(=O)N[C@@H](CO)C(=O)NCC(=O)N[C@@H](C)C(=O)N1CCC[C@H]1C(=O)N1CCC[C@H]1C(=O)N1CCC[C@H]1C(=O)N[C@@H](CO)C(=O)N[C@@H](CSC1CC(=O)N(CCNC(=O)COCCOCCNC(=O)COCCOCCNC(=O)CC[C@H](NC(=O)CCCCCCCCCCCCCCCCC(=O)O)C(=O)O)C1=O)C(N)=O (some centres unmarked) [5-1A] (H-Y[Aib]QGTFTSDYSKYLDYMMARDFVQWLIEGGPSSGAPPPSC(X1)-NH2; N-terminus assumed)
[1]; 20 nmol/kg s.c. Q2D, 2 weeks
  blood glucose, in words: reduce blood glucose
  body weight, in words: reduce body weight
[1]; end of treatment
  hepatic triglyceride content, in words: reduce hepatic triglyceride content
  liver weight, in words: reduce liver weight
  mRNA levels of TGF-β1 (inflammation marker) and ACTA2 (fibrosis marker), in words: reduce both TGF-β1 and ACTA2
Human GLP-1R; Table 18
  Activity relative to STD peptide (%), GLP-1R: 187%
Human GLP-1R; [6]
  Activity relative to GLP-1 (%), GLP-1R: 100%
Human GLP-1R; [7]
  Relative % to native ligand, GLP-1R: 187%
Human GLP-1R; Table 25
  Ratio vs. GLP-1R, GLP-1R: 100
Human GLP-1R; Table 26
  Relative % to non-lipidated peptide, GLP-1R: 159%
Human GIPR; Table 18
  Activity relative to STD peptide (%), GIPR: 1%
Human GIPR; [6]
  Activity relative to GLP-1 (%), GIPR: 1%
Human GIPR; [7]
  Relative % to native ligand, GIPR: 1%
Human GIPR; Table 25
  Ratio vs. GLP-1R, GIPR: 1
Human GIPR; Table 26
  Relative % to non-lipidated peptide, GIPR: 11%
Human GCGR; Table 18
  Activity relative to STD peptide (%), GCGR: 24%
Human GCGR; [6]
  Activity relative to GLP-1 (%), GCGR: 13%
Human GCGR; [7]
  Relative % to native ligand, GCGR: 24%
Human GCGR; Table 25
  Ratio vs. GLP-1R, GCGR: 13
Human GCGR; Table 26
  Relative % to non-lipidated peptide, GCGR: 0%
[2]; Example 5, 20 nmol/kg s.c. QD, 4 days
  body weight loss effect, in words: Superior body weight loss effects
[2]; 10 nmol/kg QD
  Weight loss (%): 20.0 ± 2.1%
[2]; 20 nmol/kg QD
  Weight loss (%): 18.9 ± 2.0%

## Y[Aib]QGTFTSDYSK([AEEA-AEEA-γGlu-C18])LLDYMMQ[Aib]DFVQWLLEGGPSSGAPPPS-NH2 [SEQ ID NO. 84]
[3]
  Ratio vs. GLP-1R: 28
  Relative % to native ligand: 20%
[4]
  Ratio vs. GLP-1R: 470
  Relative % to native ligand: 335%
[5]
  Ratio vs. GLP-1R: 100
  Relative % to native ligand: 71%

## Y[Aib]QGTFTSDYSK([AEEA-AEEA-γGlu-C18])LLDYMMQ[Aib]DFVQYLLEGGPSSGAPPPS-NH2 [SEQ ID NO. 85]
[3]
  Ratio vs. GLP-1R: 305
  Relative % to native ligand: 38%
[4]
  Ratio vs. GLP-1R: 1150
  Relative % to native ligand: 143%
[5]
  Ratio vs. GLP-1R: 100
  Relative % to native ligand: 12%

B1: SEQ ID NO. 86 (peptide)
peptide: Y[Aib]QGTFTSDYSK([AEEA-AEEA-γGlu-C18])LLDKMMQRDFVQWLLEGGPSSGAPPPS-NH2
modifications: not fully specified (residue 16); printed as YAibQGT FTSDY SK*LLD B*MMQR DFVQW LLEGG PSSGA PPPS
[3]
  Ratio vs. GLP-1R: 157
  Relative % to native ligand: 142%
[4]
  Ratio vs. GLP-1R: 639
  Relative % to native ligand: 575%
[5]
  Ratio vs. GLP-1R: 100
  Relative % to native ligand: 90%

B2: SEQ ID NO. 88 (peptide)
peptide: Y[Aib]QGTFTSDYSK([AEEA-AEEA-γGlu-C18])LLDYMMQKDFVQWLLEGGPSSGAPPPS-NH2
modifications: not fully specified (residue 20); printed as YAibQGT FTSDY SK*LLD YMMQB* DFVQW LLEGG PSSGA PPPS
[3]
  Ratio vs. GLP-1R: 120
  Relative % to native ligand: 20%
[4]
  Ratio vs. GLP-1R: 432
  Relative % to native ligand: 71%
[5]
  Ratio vs. GLP-1R: 100
  Relative % to native ligand: 16%

B3: SEQ ID NO. 89 (peptide)
peptide: Y[Aib]QGTFTSDYSK([AEEA-AEEA-γGlu-C18])LLDYMMQRDFVKWLLEGGPSSGAPPPS-NH2
modifications: not fully specified (residue 24); printed as YAibQGT FTSDY SK*LLD YMMQR DFVB*W LLEGG PSSGA PPPS
[3]
  Ratio vs. GLP-1R: 117
  Relative % to native ligand: 45%
[4]
  Ratio vs. GLP-1R: 399
  Relative % to native ligand: 154%
[5]
  Ratio vs. GLP-1R: 100
  Relative % to native ligand: 38%

## Y[Aib]QGTFTSDYSK([AEEA-AEEA-γGlu-C18])LLDYMMQRDFVQWLLEGGPSSGAPPPSK(Biotin)-NH2 [SEQ ID NO. 90]
[3]
  Ratio vs. GLP-1R: 39
  Relative % to native ligand: 19%
[4]
  Ratio vs. GLP-1R: 311
  Relative % to native ligand: 154%
[5]
  Ratio vs. GLP-1R: 100
  Relative % to native ligand: 50%

## Y[Aib]QGTFTSDYSK([AEEA-AEEA-γGlu-C18])LLDYMMQ[Aib]DFVQYLLEGGPSSGAPPPSK-NH2 (not fully specified (residue 40)) [SEQ ID NO. 92]
[3]
  Ratio vs. GLP-1R: 243
  Relative % to native ligand: 19%
[4]
  Ratio vs. GLP-1R: 1530
  Relative % to native ligand: 120%
[5]
  Ratio vs. GLP-1R: 100
  Relative % to native ligand: 8%

## Y[Aib]QGTFTSDYSK([AEEA-AEEA-γGlu-C18])LLDQQAQRDFVQWLLEGGPSSGAPPPS-NH2 [SEQ ID NO. 95]
[3]
  Ratio vs. GLP-1R: 1
  Relative % to native ligand: 14%
[4]
  Ratio vs. GLP-1R: 19
  Relative % to native ligand: 316%
[5]
  Ratio vs. GLP-1R: 100
  Relative % to native ligand: 1630%

## Y[Aib]QGTFTSDYSK([AEEA-AEEA-γGlu-C18])LLDY[methoxinine][methoxinine]QRDFVQWLLEGGPSSGAPPPS-NH2 [SEQ ID NO. 96]
[3]
  Ratio vs. GLP-1R: 10
  Relative % to native ligand: 17%
[4]
  Ratio vs. GLP-1R: 56
  Relative % to native ligand: 102%
[5]
  Ratio vs. GLP-1R: 100
  Relative % to native ligand: 181%

## Y[Aib]QGTFTSDYSK([AEEA-AEEA-γGlu-C18])YLDYMMQRDFVK(Biotin)WLLEGGPSSGAPPPS (ends and bridges not checked) [SEQ ID NO. 97]
[3]
  Ratio vs. GLP-1R: 28
  Relative % to native ligand: 30%
[4]
  Ratio vs. GLP-1R: 117
  Relative % to native ligand: 123%
[5]
  Ratio vs. GLP-1R: 100
  Relative % to native ligand: 106%
